Laboratory results published in article PMC10733448, “An aptamer and Au/Si CCA based SERS sensor for ultra-sensitive detection of Vimentin during EMT in gastric cancer”.

Biological target: Vimentin (UniProt P08670 2-466)
Assay: SERS strand-displacement sensor (signal decrease on Vimentin addition); competes with hybridized complementary strand S3 (5-FAM); binding buffer, salt, pH and temperature not given in the material; aptamer on Au/Si CCA, complementary strand on AuNCs, 6-MCH blocking
Settings: label: none on the aptamer; reporter 5-FAM is on the complementary strand S3; before protein addition hybridized over its 3' 18 nt to SH-S3-5-FAM on Au nanocubes

Chain of Vimentin (P08670 2-466): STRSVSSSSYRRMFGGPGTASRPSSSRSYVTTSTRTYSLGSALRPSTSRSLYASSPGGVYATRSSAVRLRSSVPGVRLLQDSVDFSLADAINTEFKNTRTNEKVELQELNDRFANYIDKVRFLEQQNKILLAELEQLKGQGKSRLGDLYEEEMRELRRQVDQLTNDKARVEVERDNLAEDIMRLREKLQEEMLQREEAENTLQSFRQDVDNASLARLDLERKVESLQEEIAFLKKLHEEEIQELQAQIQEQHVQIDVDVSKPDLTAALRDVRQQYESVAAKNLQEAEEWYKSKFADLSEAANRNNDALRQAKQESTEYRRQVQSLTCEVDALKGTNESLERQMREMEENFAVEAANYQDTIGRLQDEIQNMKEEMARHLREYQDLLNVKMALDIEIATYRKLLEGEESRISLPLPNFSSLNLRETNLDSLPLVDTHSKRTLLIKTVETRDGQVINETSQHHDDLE

## TAGACCCAGCTGGTCCGGAAAATAAGATGTCACGGATCCTC (ssDNA, thiol (SH) printed at 5' end) [Vimentin aptamer]
  binding result: binds
